* marks the point of attachment. Biotin = O=C1N[C@H]2[C@H](CS[C@H]2CCCCC(=O)*)N1
T1: SH3 binding peptide biotin-SGSGILAPPVPPRNTR-COOH (SMILES …)
T1 peptide: Biotin-SGSGILAPPVPPRNTR-OH

T2: AF6 PDZ binding peptide biotin-SGDDGDDPFLQYEFYV-COOH (SMILES …)
T2 peptide: Biotin-SGDDGDDPFLQYEFYV-OH

T3: MMAC1.388-403 biotin-ENEPFDEDQHTQITKV-COOH (SMILES …)
T3 construct: also called the 16 C-terminal amino acids of MMAC1
T3 peptide: Biotin-ENEPFDEDQHTQITKV-OH


Assays:
Test in all cases: peptide binding ELISA: GST-PDZ on plate, biotin-peptide/streptavidin-alkaline phosphatase complex, colorimetric
[1] = molecular target: T1, SH3 binding peptide …
Text: (§1) cDNAs encoding each of the MMSC1 PDZ domains (amino acid residues identified in Table 1), and any desired control proteins, were generated by PCR and subcloned as glutathione S-transferase (GST) fusions in pGEX vectors (Pharmacia). After sequencing to confirm expression construct integrity, the resulting clones were expressed in E. coli and the desired fusion proteins isolated with glutathione-agarose and recovered with glutathione elution. These fusion proteins or control proteins were then adsorbed to different wells of a 96-well ELISA plate and remaining sites blocked with BSA. Synthetic commercially synthesized peptides encoding the desired PDZ-binding domain (i.e., the 16 C-terminal amino acids of MMAC1, or the C-terminal peptide sequences of interacting proteins identified by the approach of Example 2, or the C-terminal peptide sequences identified by the approach of Example 3), or a control peptide, and biotinylated at the amino-terminus, were pre-bound to streptavidin-alkaline phosphatase in a 4:1 molar ratio. The biotinylated peptide streptavidin-alkaline phosphatase complexes were then blocked with free biotin. These pre-bound peptide streptavidin-alkaline phosphatase complexes were then incubated with the immobilized PDZ domains in wash buffer containing PBS, BSA and triton-X100. Unbound material was removed with repeated washes. Bound peptide/streptavidin-alkaline phosphatase complex was then quantitated by a colorimetric phosphatase assay read on a 96-well plate reader.

[2] = molecular target: T2, AF6 PDZ binding peptide …
Text: as §1

[3] = molecular target: T3, MMAC1.388-403 …
Text: as §1

| A405 [1] [A405] | A405 [2] [A405] | A405 [3] [A405] | Binder |
| --- | --- | --- | --- |
| 0.01 | 2.24 | 0.01 | GST fusion of MMSC1 PDZ domain 3 (amino acids 364-451) (other, Expressed in E. coli, purified on glutathione-agarose, adsorbed to the ELISA plate; GST is placed N-terminal as in pGEX vectors; also called MMSc1 PDZ 3; PDZ domain number 3; not shown: glutathione S-transferase (GST) encoded by pGEX vectors (Pharmacia)) YNVELVRKDGQSLGIRIVGYVGTSHTGEASGIYVKSVIPGSAAYHNGHIQVNDKIVAVDGVNIQGFANHDVVEVLRNAGQVVHLTLVR |
| 0 | 1.46 | 0.23 | GST fusion of MMSC1 PDZ domain 6 (amino acids 1067-1158) (other, Expressed in E. coli, purified on glutathione-agarose, adsorbed to the ELISA plate; GST is placed N-terminal as in pGEX vectors; also called MMSc1 PDZ 6; PDZ domain number 6; not shown: glutathione S-transferase (GST) encoded by pGEX vectors (Pharmacia)) RIVEIFREPNVSLGISIVGGQTVIKRLKNGEELKGIFIKQVLEDSPAGKTNALKTGDKILEVSGVDLQNASHSEAVEAIKNAGNPVVFIVQS |
| 0.01 | 1.05 | 1.25 | GST fusion of MMSC1 PDZ domain 7 (amino acids 1238-1320) (other, Expressed in E. coli, purified on glutathione-agarose, adsorbed to the ELISA plate; GST is placed N-terminal as in pGEX vectors; also called MMSc1 PDZ 7; PDZ domain number 7; not shown: glutathione S-transferase (GST) encoded by pGEX vectors (Pharmacia)) HIIELEKDKNGLGLSLAGNKDRSRMSIFVVGINPEGPAAADGRMHIGDELLEINNQILYGRSHQNASAIIKTAPSKVKLVFIR |
| 0 | 0.02 | 0 | GST fusion of MMSC1 PDZ domain 5 (amino acids 685-771) (other, Expressed in E. coli, purified on glutathione-agarose, adsorbed to the ELISA plate; GST is placed N-terminal as in pGEX vectors; also called MMSc1 PDZ 5; PDZ domain number 5; not shown: glutathione S-transferase (GST) encoded by pGEX vectors (Pharmacia)) KIVELVKDCKGLGFSILDYQDPLDPTRSVIVIRSLVADGVAERSGGLLPGDRLVSVNEYCLDNTSLAEAVEILKAVPPGLVHLGICK |
| 0 | 0.29 | 0.3 | GST fusion of MMSC1 PDZ domain 8 (amino acids 1436-1518) (other, Expressed in E. coli, purified on glutathione-agarose, adsorbed to the ELISA plate; GST is placed N-terminal as in pGEX vectors; also called MMSc1 PDZ 8; PDZ domain number 8; not shown: glutathione S-transferase (GST) encoded by pGEX vectors (Pharmacia)) MIIEISKGRSGLGLSIVGGKDTPLNAIVIHEVYEEGAAARDGRLWAGDQILEVNGVDLRNSSHEEAITALRQTPQKVRLVVYR |
| 0.02 | 2.41 | 0.1 | GST fusion of MMSC1 PDZ domain 9 (amino acids 1532-1613) (other, Expressed in E. coli, purified on glutathione-agarose, adsorbed to the ELISA plate; GST is placed N-terminal as in pGEX vectors; also called MMSc1 PDZ 9; PDZ domain number 9; not shown: glutathione S-transferase (GST) encoded by pGEX vectors (Pharmacia)) FPVDLQKKAGRGLGLSIVGKRNGSGVFISDIVKGGAADLDGRLIQGDQILSVNGEDMRNASQETVATILKCAQGLVQLEIGR |
